Drawing on a protein production outcome set (Wang et al. 2014), this text covers protein production for 13 sequences.

This data set in a line: label from the status in PepcDB records.
“MTEEKKRGFRIPSSYTVLFIIIAIMAVLTWFIPAGAYETAKGGGVISGTYKTVASNPQGFFDILMAPVRGMLGVEGTDGAIQVSFFILMVGGFLGVVNKTGALDTGIASVVRKNKGREKMLIAILIPLFALGGTTYGMGEETMAFYPLLIPVMIAVGFDSIVAVAIILIGSQIGCLASTINPFATGVAADAAGVSIADGMIWRVIQWVILVGMSIWFVYNYASKIEEDPSKSLVADKEEEHKELFQLQNSGEDLNKRQRNVLTIFTLTFVIMILSLIPWEDFGIKFFTNINTWLTTMPILGGVIGKTMGAFGTWYFPEITMLFIMMGVLVAIVYRMSEEDFFSSFLTGAGEFLGVAMICAIARGIQVIMNGGMITATILHLGETSLSGLSSQVFVILAYIFYLPMSFLIPSTSGLAGATMGIMAPLGQFSNVPAHLVITAFQSASGILNMISPTSAIVMGALALGRVDLGTWWKFIGKFIVMVMLVSVLLLVVATFF”: the protein production result is given as “not failed”.
For “LANRIENVVSQERTRKKFESLVSDSPDGIVHLTTNGTILSVNPSMAGRLGADPDTLVGQQLSAVMDSEAANQRLEAGKSAVENGTATRSEDAVGGRHYHNQYIPVDSHRKSDTFQLVSRDIT”, the protein production result was “not failed”.
With “TLPPRGRLRIDVPLALAHAILIPNLKHFQSLYPDIDVILVSSDKKTDLISEGVDCLVRLGELQDSSFISRRLGDIRMVTCAAPSYLQQYGRPETLADLDQHRAINFFSDHSRDVMEWKFTKDGKIVSLRPVGSMLVDNSDILL”, the protein production result was “failed”.
“MEITLSKSLLIAVVLAPLLGSIIAGLFGRQVGRKGAQYVTILGVAVSCVLSCVTLYQLVEQGASPFNQNLYTFFDVGNYSAHVGFMVDRLTAMMMVVVTFVSLLVHIYTIGYMEEDPGYQRFFSYISLFTFSMLTLVMSNNFLQLFFGWEAVGLVSYLLIGFWFKRPTAVFANMKAFLVNRVGDFGFILGIAGVLLWFGSLDYSTVFANATTMAGAKVQLFAGHEWSVMTLICICLFIGAMGKSAQVPLHVWLPDSMEGPTPISALIHAATMVTAGIFMVARMSPLFELSETALNFILFIGATTAFFTGLIGIVQNDIKRVVAYSTLSQLGYMTVALGVSAYSAAVFHLMTHAFFKALLFLAAGSVIIGMHHEQDMRKMGGLRKYMKVTYWTSVIGTLALVGTPFFSGFYSKDTIIEAAAHHAHESHNWVATYGYWAVLGGVLVTSFYSFRLLFLTFHGKERFRDAHAHDVHSHHDSAHTDAEAQVHSHDAHAHDDHGHGHHGAHEPHESKWVVTLPLVLLAIPSIAIGFFTIGPMLFGTDWQGHHAVHAMKGQAVSFFTGIVDFYDPARDTVGALAEEFHGPVAFALHGMLAAPFFLTVAGLLLAALFYLWKPELATKSRKTFAPIVWLLENKYGFDKLWINGFAGGGVVLGKASRAVDTHVVDGAVVNGSARLIDLAANLLRRTQSGFLYHYAFAMIIGLIALLAVLMHFWR”: the protein production entry is listed as “failed”.
With “MNKFVKSLLVAGSVAALAACSSSNNDAAGNGAAQTFGGYSVADLQQRYNTVYFGFDKYDITGEYVQILDAHAAYLNATPAAKVLVEGNTDERGTPEYNIALGQRRADAVKGYLAGKGVDAGKLGTVSYGEEKPAVLGHDEAAYSKNRRAVLAY” the entry was “not failed”; with “MNLHSRQDEGPIPSGNPYALSLSMSAILAPFKKIYDLIDGFVLIMLTAIGIALIAPEIGTGDGPLRLGVVTNLGVALVFFLHGAALSRDKLVAGAKHWRLHVFVQSFTYIVFPIVGVLLMLSLRNTLPPELLLGVFYLCALPSTVSSSVAMTSMARGNVPGAIFNATISGLIGMALTPLLMGLVISASGASMPLGRALMGVALQLLLPFALGQAARPLIGNWLAKKKQITNKIDRGVIVLIVYSSFCDATAAGLWHQYHWQTIGAVMGIAAVLLFVILGTTTFTARRLGFSVEDEITAVFCGSKKSLANGIPMAKILFAGHPALGLLVLPLMVYHQLQLIVCSVIAARYANRDDVETREAVRA”, “failed”.
For the sequence “MTRRVKTGIPGVDEILHGGIPERNVVLLSGGPGTGKTIFSQQFLWNGLKMGEPGIYVALEEHPVQVRQNMAQFGWDVKPYEEKGMFAMVDAFTAGIGKSKEYEKYIVHDLTDIREFIEVLRQAIRDINAKRVVVDSVTTLYINKPAMARSIILQLKRVLAGTGCTSIFVSQVSVGERGFGGPGVEHGVDGIIRLDLDEIDGELKRSLIVWKMRGTSHSMRRHPFDITDKGIIVYPDKVLKRGKVLEL”, the protein production result is “not failed”.
As for “MRSTKIVCTVGPRTDSYEMIEKMIDLGVNVFRINTSHGDWNEQEQKILKIKDLREKKKKPVAILIDLAGPKIRTGYLEKEFVELKEGQIFTLTTKEILGNEHIVSVNLSSLPKDVKKGDTILLSDGEIVLEVIETTDTEVKTVVKVGGKITHRRGVNVPTADLSVESITDRDREFIKLGTLHDVEFFALSFVRKPEDVLKAKEEIRKHGKEIPVISKIETKKALERLEEIIKVSDGIMVARGDLGVEIPIEEVPIVQKEIIKLSKYYSKPVIVATQILESMIENPFPTRAEVTDIANAIFDGADALLLTAETAVGKHPLEAIKVLSKVAKEAEKKLEFFRTIEYDTSDISEAISHACWQLSESLNAKLIITPTISGSTAVRVSKYNVSQPIVALTPEEKTYYRLSLVRKVIPVLAEKCSQELEFIEKGLKKVEEMGLAEKGDLVVLTSGVPGKVGTTNTIRVLKVD”, the protein production result is given as “not failed”.
The result for “MSIEKKVGFFFIAGLVLLGVMLELGEKWNPFQKAIPYKTYLSSTTGLKLGDPVRLAGVEVGKITKIAIADSRVEVAFEVKPGTAIKADSVATIRLTNLLGGQFLGLSFGSPDAPVLPPGSAVKSRETANIDVIVDNVGDLAKDAKVLIKDLTVNQKEVFQKVSSMLDENRGNLRGAIENMNSITTKMDRGQGSLALLLNDKSLYRNTNELAASMKNVTAKIEKGEGSLGKFVNDDAFYRDAKGAVANLNDGAKDIKEIAAKINRGEGSVGKLVNDESLYNELRDASKNVGEVAKKINNGQGTLGKLVNDDTLYRDTTAAMKKLDKATEGLSDTGPISVIGSMVGTLFLEHHHHHH” reads “not failed”; that for “MFKVLAEAFASARLRLGAILFSPQSLAFLPAFCLGLYWYGGETALMITALVFPVFFLVARAKLAETVTTSRQDSVLGVMQPDGFQDIVAARFREARAGGLISTVFQIEIDDHTSLVERHGQRAAEVISTTSADRIAAVLRDRDAVTHLDTFKYAVCLEPVRQMDLELCIQLAGRIQAALEEPIALDATAVCITSSVGFCQQTKVLSRSGEAWLAAAGHALREAHLNGPGAIRAYSEKMQQKSEIRAELREEVAQALEKGQIKPWFQPQISTDTGLVTGFEALARWNHPKRGMVPPGAFLTAIEQAGMLEKLAEVMIFHAFTALKAWDSAGVCVPQVGVNFAGPELSNPKLVDKIIWELDRFDLAPERLAVEVLETVVANSPDDTITRNINGLSKLGCRIDLDDFGTGHASISSIRRFSVSRIKIDRSFVIKADRDPEQQRMISAILTMAERLEVETLAEGVESVGEHALLAQLGCDHVQGFGIGKPMPFDQTLDWIASHNAKLQATPQILPNKLRLEHHHHHH”, “not failed”.
The result for “MSKENPLKFLGIGSAFNPNYNNTSAYFELEDNLFLIDCGGGIFNSLLSLKLLEKYLHLNVLITHTHPDHIASLGQLILYCYYQLNKKITLIFPQSEIILNLLDYMGIRNDIYILKTPQDFVNYLSKLTVISLEQVHVNELPCFGYLIYLNNVTFYYSGDSKSIPLYILTKFLEGEIDFLFQDTCSENHNHHPHLSIKELSEQIPPSKRKQVYCMHIDEKFDVNLAKNLGFNIPQEIIVERDAK” reads “failed”.
With “MNNIAAIVVTYNRKKLLKKCIKGLKEQTEKADIIIIDNMSTDGTLEMLQPLINSNEIIYHSTGKNIGGAGGFYEGIKLAYEMGYKYFWLMDDDCIPTSSALEKLMNVVNEKKNFGFLVSKALWKDGEVCKMNIPKIKLTKQVNDFSKKVIQIKMGTFVSFLTSREVVEKVGLPIKEFFIWGDDLEYSQRISQKFPSYLVTNSLVYHETKLNEGSNIALDSVDRLKRYKLAYRNEVVLFKEMGLQGQMYQYFRLVLHCGRILFKSKDHKKERLNIIFQGTRAGYNFHPVIKNIK” the entry was “failed”; with “YDFIDNPGFDESHSLTEMREAFLSFFEDRDHERIDPYPVAANRWRDDVLLTQASIYDFQPLVTSGTTPPPANPLCISQPCIRMQDIDNVGKTGRHTMAFEMMAHHAFNAREDIEDPEQYAYEGEVYWKNETVQYCDELFEEMGANLDEIVYIEDPWVGGGNAGPAIEVIYRGAELATLVFMSMEQDSDGEYEMKDGNRYSPMDTYIVDTGYGLERWTWMSQGTPTVYEAVYPDMIAFLKDNAGIELTDEEERIVHEAAKLAGRMDI”, “failed”.
